Entries after “also recorded” stand apart in the source; their conditions may differ. *1 amine or outer side, *2 acyl side, *3 side chain or, on linkers, in order; H or OH if unused. Where no end group is shown, it is not given here. The star is where a group is joined. Malonyl = O=C(CC(=O)[*:2])[*:1]; AMC = Cc1cc(=O)oc2cc(N*)ccc12; Suc = O=C(CCC(=O)[*:2])[*:1]
How the values were obtained:
Sirt2 = molecular target: T1, Sirt2 (Homo sapiens, UniProt Q8IXJ6); assay: Secondary screening using Sirt2 and ISGASE(AcK)-AMC fluorogenic assay; type: biochemical; settings: inhibitor 30 μM, ISGASE(AcK)-AMC 0.3 mM, Sirt2 1 μM, FIG. 15
T1 construct: made in house
T1 sequence (Q8IXJ6 1-389): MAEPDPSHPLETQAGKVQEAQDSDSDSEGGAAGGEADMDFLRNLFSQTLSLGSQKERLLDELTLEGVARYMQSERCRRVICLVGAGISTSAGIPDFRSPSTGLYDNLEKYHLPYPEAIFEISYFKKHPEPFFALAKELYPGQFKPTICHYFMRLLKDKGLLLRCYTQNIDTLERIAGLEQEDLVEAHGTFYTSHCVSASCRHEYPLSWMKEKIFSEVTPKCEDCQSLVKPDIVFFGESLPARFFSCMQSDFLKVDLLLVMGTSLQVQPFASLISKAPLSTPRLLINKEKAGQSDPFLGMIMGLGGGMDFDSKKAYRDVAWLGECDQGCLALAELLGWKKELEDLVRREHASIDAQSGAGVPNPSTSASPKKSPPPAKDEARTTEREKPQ
Experimental: SirT2 (1 μM) was incubated with ISGASE(AcK)-AMC (SEQ ID NO:13) peptide (0.3 mM), inhibitors (30 μM), NAD (0.5 mM) in Tris-HCl buffer (pH 7.4, 20 mM) containing dithiothreitol (DTT, 1 mM) in a 60 μL reaction for 4 hours at 37° C. Then trypsin (1 μg) and CaCl2 (1 mM) were added and the reaction were incubated for 3 hours at 37° C. The reactions were diluted with 50 μL water. The mixture (100 μL) was transferred to 96 well plate and the fluorescence was recorded by BIO-TEK® Synergy HT (Optics Position: Top, Sensitivity: 50, Excitation at the wavelength of 360 nm and Emission at the wavelength of 460 nm).

Sirt5 [1] = molecular target: T2, Sirt5 (Homo sapiens, UniProt Q9NXA8); assay: Screening for Sirt5 inhibitors with ISGASE(SuK)-AMC in the fluorogenic assay; type: biochemical; settings: compound 30 μM, ISGASE(SuK)-AMC 0.3 mM, Sirt5 1 μM, FIG. 13
T2 construct: made in house
T2 sequence (Q9NXA8 37-310): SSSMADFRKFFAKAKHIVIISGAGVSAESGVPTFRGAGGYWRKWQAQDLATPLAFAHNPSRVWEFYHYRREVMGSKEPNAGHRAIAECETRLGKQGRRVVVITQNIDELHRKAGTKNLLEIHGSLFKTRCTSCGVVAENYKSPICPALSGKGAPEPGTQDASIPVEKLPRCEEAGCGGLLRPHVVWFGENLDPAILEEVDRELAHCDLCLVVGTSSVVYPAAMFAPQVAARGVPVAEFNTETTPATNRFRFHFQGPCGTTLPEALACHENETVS
Experimental: SirT5 (1 μM) was incubated with ISGASE(SuK)-AMC (SEQ ID NO:11) peptide (0.3 mM), NAD (0.5 mM) in Tris-HCl buffer (pH 7.4, 20 mM) with DTT (1 mM) in 60 μL reactions for 4 hours at 37° C. Then trypsin (1 μg) and CaCl2 (1 mM) were added and the reactions were incubated for 3 hours at 37° C. The reactions were the diluted with 50 μL water. The mixture (100 μL) was transferred to 96 well plate and the fluorescence was recorded by BIO-TEK® Synergy HT plate reader (Optics Position: Top, Sensitivity: 50, Excitation at the wavelength of 360 nm and Emission at the wavelength of 460 nm).
The procedure was the same as described above (Assaying Sirt5 activity on ISGASE(SuK)-AMC in the fluorogenic assay), except that different compounds (30 μM) were included in the reactions. In the desuccinylation step, Sirt5 was added last to initiate the desuccinylation reaction.

Sirt5 [2] = molecular target: T2, Sirt5; assay: Sirt5 deacetylation, demalonylation, desuccinylation kinetics on WW-tagged peptides by HPLC; type: biochemical; settings: peptides with two C-terminal tryptophan residues; for Km: read-out: Peptide Km
Experimental: (§1) For determination of kcat and Km, human Sirt1, Sirt2, Sirt3 and Sirt5 were measured by detecting the deacylated peptide from H3K9 acyl peptides using HPLC. Purified Sirtuin was incubated with 1.0 mM of NAD in 20 mM Tris-HCl buffer (pH 7.5) containing acyl peptides (0-750 μM) and 1 mM DTT in 60 μL reactions at 37° C. The reactions were stopped with 100 mM HCl and 160 mM acetic acid, analyzed by HPLC with a reverse phase C18 column (250×4.6 mm, 90 A, 10 μm, GraceVydac, Southborough, Mass.), with a linear gradient of 0% to 20% B for 10 min (1 mL/min). […] The kcat and Km values were obtained by curve-fitting the Vinitial/[E] versus [S] plot using KaleidaGraph. For Sirt5 R105M, the observed second order rate constant, kobs (rate/([Sirtuin][NAD])) was detected instead of kcat and Km because of the very weak deacylation activity. The experiments were done in duplicate.
(§2) For comparing the deacetylation, demalonylation and desuccinylation activities of Sirt5 on different peptide backbones (results shown in Table 2), histone H3, GDH and ACS2 peptides with two tryptophan residues at the C-terminal were used to allow better detection and quantification on HPLC. The determination of kcat and Km was carried out essentially the same as mentioned above with slight modifications. The reactions were quenched with 60 μL 10% TFA. The chromatography gradient was 0% to 50% B for 20 min (1 mL/min). The peptides were detected and quantified on the LC by the absorption at 280 nm.

Sirt5 [3] = molecular target: T2, Sirt5; assay: Sirt5-catalyzed desuccinylation of AMC-succinyl peptides monitored by HPLC; type: biochemical; settings: 2 hrs
Experimental: […] The reactions were stopped with 200 mM HCl and 320 mM acetic acid, analyzed by HPLC with a reverse phase C18 column (250×4.6 mm, 90 A, 10 μm, GraceVydac, Southborough, Mass.), with a linear gradient of 0% to 20% B for 10 min (1 mL/min).

[4] = substrate: C[C@H](NC(=O)[C@@H](NC(=O)[C@H](CCC(N)=O)NC(=O)[C@@H](N)CCCCN)[C@@H](C)O)C(=O)N[C@@H](CCCNC(=N)N)C(=O)N[C@@H](CCCCNC(=O)CC(=O)O)C(=O)N[C@@H](CO)C(=O)N[C@H](C(=O)NCC(=O)NCC(=O)N[C@@H](Cc1c[nH]c2ccccc12)C(=O)N[C@@H](Cc1c[nH]c2ccccc12)C(=O)O)[C@@H](C)O; assay: Sirt5 deacetylation, demalonylation, desuccinylation kinetics on WW-tagged peptides by HPLC; type: biochemical, human; settings: other: Sirt5, peptides with two C-terminal tryptophan residues, pH 7.5
Experimental: as §1, §2

[5] = substrate: C[C@H](NC(=O)[C@@H](NC(=O)[C@H](CCC(N)=O)NC(=O)[C@@H](N)CCCCN)[C@@H](C)O)C(=O)N[C@@H](CCCNC(=N)N)C(=O)N[C@@H](CCCCNC(=O)CCC(=O)O)C(=O)N[C@@H](CO)C(=O)N[C@H](C(=O)NCC(=O)NCC(=O)N[C@@H](Cc1c[nH]c2ccccc12)C(=O)N[C@@H](Cc1c[nH]c2ccccc12)C(=O)O)[C@@H](C)O; assay: as above; type: biochemical, human; settings: other: Sirt5, peptides with two C-terminal tryptophan residues, pH 7.5
Experimental: as §1, §2

Cc1ccc(C(=O)Nc2ccc(S(=O)(=O)O)c3cc(S(=O)(=O)O)cc(S(=O)(=O)O)c23)cc1NC(=O)c1cccc(NC(=O)Nc2cccc(C(=O)Nc3cc(C(=O)Nc4ccc(S(=O)(=O)O)c5cc(S(=O)(=O)O)cc(S(=O)(=O)O)c45)ccc3C)c2)c1 [suramin]
fluorescence produced by Sirt2 in fluorogenic assay (Sirt2): decreased the fluorescence to almost background level | inhibition of Sirt5 (fluorescence) in fluorogenic assay (Sirt5 [1]): close to background level; also recorded: significant inhibition

GDH K503 (498-509 + WW) acetyl peptide: GDH K503 acetyl peptide (498-509) with two C-terminal tryptophan residues (SGASEK(Ac)DIVHSGWW)
Km (Sirt5 [2]): > 750 µM

GDH K503 (498-509 + WW) malonyl peptide: GDH K503 malonyl peptide (498-509) with two C-terminal tryptophan residues (SGASEK(Malonyl)DIVHSGWW)
kcat (Sirt5 [2]): 0.014 ± 0.001 s⁻¹ | Km (Sirt5 [2]): 8.7 ± 1.3 µM

GDH K503 (498-509 + WW) succinyl peptide: GDH K503 succinyl peptide (498-509) with two C-terminal tryptophan residues (SGASEK(Suc)DIVHSGWW)
kcat (Sirt5 [2]): 0.028 ± 0.002 s⁻¹ | Km (Sirt5 [2]): 14 ± 4 µM

ISGASE(SuK)-AMC (ISGASEK(Suc)-{AMC})
succinyl peptide desuccinylated (Sirt5 [3]; 1 μM Sirt5, 300 μM peptide): 7.3% | succinyl peptide desuccinylated (Sirt5 [3]; 2 μM Sirt5, 300 μM peptide): 17% | succinyl peptide desuccinylated (Sirt5 [3]; 5 μM Sirt5, 300 μM peptide): 36%

KQTARK(Ac)STGGWW [H3 K9 (4-13 + WW) acetyl peptide]
Km (Sirt5 [2]): > 750 µM

B1: Sirt5 (Homo sapiens) (protein)
chain: T2 sequence (Q9NXA8 37-310)
notes: made in house
Km [4]: 6.1 ± 2.8 µM | kcat [4]: 0.037 ± 0.003 s⁻¹ | kcat/Km [4]: 6100 M⁻¹ s⁻¹ | Km [5]: 5.8 ± 2.7 µM | kcat [5]: 0.025 ± 0.002 s⁻¹ | kcat/Km [5]: 4300 M⁻¹ s⁻¹

Reference: patent publication US9932621B2, “Modulators for Sirt5 and assays for screening same” (CORNELL UNIVERSITY, priority 2010, dated 2018)
